From patent publication US20190284262A1 (Memorial Sloan Kettering, published 2019)

Experiments:
[1] = molecular target: T1, HLA-A*02:01 on T2 cells alone (no peptide added) (human); experiment: flow cytometry, phage on T2 without peptide; secondary only 100, unstained 99.5
T1 construct: TAP-deficient T2 cells without pulsed peptide; negative control target, and the HLA molecule whose stabilisation by peptides is read in the T2 stabilization assay; also called HLA-A*02 molecule; HLA-A2 molecule

[2] = molecular target: T1, HLA-A*02:01 on T2 cells alone (no …); experiment: flow cytometry, phage on T2 without peptide
[3] = molecular target: T2, Foxp3-7 peptide/HLA-A*02:01 complex on the cell surface (human); experiment: flow cytometry, phage on T2 + Foxp3-7 peptide; secondary only 133, unstained 103
T2 construct: also called Foxp3-7/HLA-A2 complex

T2+EW [4] = molecular target: T3, T2+EW (Homo sapiens, UniProt A*02:01); experiment: flow cytometry, phage on T2 + EW peptide; secondary only 113, unstained 94.7
T3 construct: on the surface of T2 cells; irrelevant control peptide; also called EW peptide/HLA-A*02:01 complex on T2 cells; T2 pulsed with EW peptide

[5] = molecular target: T2, Foxp3-7 peptide/HLA-A*02:01 complex on …; experiment: flow cytometry, phage on T2 + Foxp3-7 peptide; secondary only 104, unstained 81.7
[6] = molecular target: T4, R3 (RHAMM-R3) peptide/HLA-A*02:01 complex on T2 cells (human); experiment: flow cytometry, phage on T2 + R3 peptide; secondary only 123, unstained 99.8
T4 construct: Control target of the phage staining of T2 cells; also called T2 cells pulsed with R3 peptide; RHAMM 3 (R3)

[7] = molecular target: T1, HLA-A*02:01 on T2 cells alone (no …); experiment: flow cytometry, phage on T2 cells
[8] = molecular target: T2, Foxp3-7 peptide/HLA-A*02:01 complex on …; experiment: flow cytometry, phage on T2 + Foxp3-7 peptide; secondary only 318, unstained 95.8
[9] = molecular target: T1, HLA-A*02:01 on T2 cells alone (no …); experiment: flow cytometry, phage on T2 cells, no peptide
[10] = molecular target: T1, HLA-A*02:01 on T2 cells alone (no …); experiment: flow cytometry, phage on T2 without peptide; secondary only 320, unstained 91.4
[11] = molecular target: T4, R3 (RHAMM-R3) peptide/HLA-A*02:01 …; experiment: flow cytometry, phage on T2 + R3 peptide (as the table names the samples); secondary only 109, unstained 80.9
[12] = molecular target: T2, Foxp3-7 peptide/HLA-A*02:01 complex on …; experiment: flow cytometry, phage on T2 + Foxp3-7 peptide; secondary only 116, unstained 93.8
[13] = molecular target: T5, 017-mut7 peptide (…)/HLA-A*02:01 complex on T2 cells (human); experiment: flow cytometry, phage on peptide-loaded T2 cells
T5 construct: Alanine mutant at position 7

[14] = molecular target: T6, 017-mut5 peptide (…)/HLA-A*02:01 complex on T2 cells (human); experiment: flow cytometry, phage on peptide-loaded T2 cells
T6 construct: Alanine mutant at position 5

[15] = molecular target: T7, 017-mut8 peptide (…)/HLA-A*02:01 complex on T2 cells (human); experiment: flow cytometry, phage on peptide-loaded T2 cells
T7 construct: Alanine mutant at position 8; also called TLI-A8

[16] = molecular target: T8, 017-mut3 peptide (…)/HLA-A*02:01 complex on T2 cells (human); experiment: flow cytometry, phage on peptide-loaded T2 cells
T8 construct: Alanine mutant at position 3

[17] = molecular target: T9, 017-mut4 peptide (…)/HLA-A*02:01 complex on T2 cells (human); experiment: flow cytometry, phage on peptide-loaded T2 cells
T9 construct: Alanine mutant at position 4

[18] = molecular target: T10, 017-mut2 peptide (…)/HLA-A*02:01 complex on T2 cells (human); experiment: flow cytometry, phage on peptide-loaded T2 cells
T10 construct: Alanine mutant at position 2, the anchor position; the peptide may load poorly onto HLA-A2; also called EXT017-mut2

[19] = molecular target: T11, 017-mut1 peptide (…)/HLA-A*02:01 complex on T2 cells (human); experiment: flow cytometry, phage on peptide-loaded T2 cells
T11 construct: Alanine mutant of Foxp3-7 at position 1, pulsed onto T2 cells; also called EXT017-mut1

[20] = molecular target: T2, Foxp3-7 peptide/HLA-A*02:01 complex on …; experiment: flow cytometry, phage on peptide-loaded T2 cells
[21] = molecular target: T12, 017-mut9 peptide (…)/HLA-A*02:01 complex on T2 cells (human); experiment: flow cytometry, phage on peptide-loaded T2 cells
T12 construct: Alanine mutant at position 9

T2+EW [22] = molecular target: T3, T2+EW; experiment: flow cytometry, phage on T2 + EW peptide; secondary only 310, unstained 93
[23] = molecular target: T1, HLA-A*02:01 on T2 cells alone (no …); experiment: flow cytometry, phage on T2 without peptide; secondary only 121, unstained 106
[24] = molecular target: T1, HLA-A*02:01 on T2 cells alone (no …); experiment: flow cytometry, phage on T2 without peptide; remark: listed apart in the source

Row | Binder | Median:FITC-A [1] | binding result [2] | Median:FITC-A [3] | Median:FITC-A (T2+EW [4]) | Median:FITC-A [5] | MFI [9] | Median:FITC-A [11] | MFI [13] | MFI [14] | MFI [15] | MFI [16] | MFI [17] | MFI [18] | MFI [19] | MFI [20] | MFI [21] | also measured
1 | Clone #24 (scFv, also called EXT017-24; EXT017-24 scFv phage clone) scFv (VL-linker-VH-His/HA tag): QAVLTQPPSVSAAPGQKVTISCSGSSSNIGNNYVSWYQQLPGTAPKLLIYDNNKRPSGLPDRFSGSKSGTSATLGITGLQTGDEADYYCGTWDSSLNAVVFGGGTQLTVLSSRGGGGSGGGGSGGGGSLEMAQVQLVQSGAEVKKPGASVKVSCKASGYTFTNYYIHWVRQAPGQGLEWMGIIRPSGGITNYAQKFQGRVTMTRDTSTSTVYMELSSLRSEDTAVYYCARSWSNKLSWYNDGWGQGTLVTVSSTSGQAGQHHHHHHGAYPYDVPDYAS | 146 | no binding | 1040 | 141 |  |  |  |  |  |  |  |  |  |  |  |  | 
2 | EXT017-27 scFv phage clone (scFv, full-length scFv with His+HA tags; also called EXT017-27 phage; phage clone #27) scFv: QAVLTQPPSVSVAPGKTARLTCGGNNIGSESVHWYQQKPGQAPLLVVYDDDDRPSGIPERFSGSNSGNTATLTISRVEAGDEADYYCQVWDRSSDHWFFGGGTKLTVLGSRGGGGSGGGGSGGGGSLEMAQVQLVQSGAEVKKPGASVKVSCKASGYTFTNYYIHWVRQAPGQGLEWMGIIRPSGGITNYAQKFQGRVSMTRDTSTSTVYMELSSLRSEDTAVYYCARSWDYFASNDFWGQGTLVTVSSTSGQAGQHHHHHHGAYPYDVPDYAS |  |  |  |  | 2820 | 90.4 | 123 | 96.3 | 95.4 | 6400 | 2260 | 99 | 98.2 | 222 | 21200 | 131 | Median:FITC-A [6]: 145; binding result [7]: no binding; Median:FITC-A [8]: 1940; Median:FITC-A [10]: 355; Median:FITC-A [12]: 658; Median:FITC-A (T2+EW [22]): 371; Median:FITC-A [23]: 150
3 | EXT017-53 scFv phage clone (scFv, full-length scFv with His+HA tags; also called EXT017-53 phage) scFv: NFMLTQPHSVSESPGKTVTISCTRSSGSIASHYVQWYQQRPGSSPTTVIYENNQRPSGVPDRFSGSIDSSSNSASLTISGLKTEDEADYYCQSYDRSNHVVFGGGTKLTVLGSRGGGGSGGGGSGGGGSLEMAQVQLVQSGAEVKKPGASVKVSCKASGYTFTNYYIHWVRQAPGEGLEWMGIIRPSGGNTNYAQKFQGRVTMTRDTSTRTVYMELSSLRSEDTAVYYCARSWNSRDVDSWGQGTLVTVSSTSGQAGQHHHHHHGAYPYDVPDYAS |  |  |  |  | 2700 | 89.5 | 121 | 98.9 | 98.5 | 12100 | 5780 | 95.8 | 95.3 | 1100 | 25800 | 149 | Median:FITC-A [8]: 1050; Median:FITC-A [10]: 355; Median:FITC-A (T2+EW [22]): 346; binding result [24]: no binding
4 | Clone #23 (scFv, also called EXT017-23; EXT017-23 scFv phage clone) scFv (VL-linker-VH-His/HA tag): SYELTQPPSVSVAPGQTAWITCGGNNIGSKSVHWYQQKPGQAPILVVYDDSDRPSGIPERVSGSNSGNTATLTISRVEAGDEADYYCQVWDSSSDRWVFGGGTKLTVLGSRGGGGSGGGGSGGGGSLEMAQMQLVQSGAEVKKPGASVKVSCKASGYTFTNYGISWVRQAPGQGLEWMGWISPYNGNTNYAQKLQGRVTMTTDTSTSTAYMELRNLRSDDTAVYYCARYWDSGYAYDEWGQGTLVTVSSTSGQAGQHHHHHHGAYPYDVPDYAS | 141 | no binding | 982 | 144 |  |  |  |  |  |  |  |  |  |  |  |  | 
5 | EXT017-20 scFv phage clone (scFv, full-length scFv with His+HA tags; also called EXT017-20 phage) scFv: QSVVTQPPSVSAAPGQKVTISCSGSSSNIGAGYDVHWYQQLPGTAPKLLIYGNSNRPSGVPDRFSGSKSGTSASLAITGLQAEDEADYYCQSYDSSLSGSVFGGGTKLTVLGSRGGGGSGGGGSGGGGSLEMAEVQLVQSGAEVKKPGSSVKVSCKASGGTFSSYAISWVRQAPGQGLEWMGGIIPIFGTANYAQKFQGRVTITADESTSTAYMELSSLRSEDTAVYYCARYSYKYGELDTWGQGTLVTVSSTSGQAGQHHHHHHGAYPYDVPDYAS | 136 | no binding | 1220 | 139 | 2300 | 91.3 | 128 | 94.9 | 95 | 11100 | 96.4 | 93.7 | 96 | 4070 | 17100 | 95.6 | 
6 | EXT017-17 scFv phage clone (scFv, fusion to the phage coat protein not described; also called EXT017-17 phage; phage clone #17) scFv: QSVLTQPPSVSGAPGQRVTISCTGSSSNIGAGYDVHWYQQLPGTAPKLLIYGNSNRPSGVPDRFSGSKSGTSASLAITGLQAEDEADYYCQSYDSSLSGYVFGTGTKVTVLGSRGGGGSGGGGSGGGGSLEMAEVQLVQSGAEVKKPGSSVKVSCKASGDTFSRYAISWVRQAPGQGLEWMGRIIPIFGTPNYAQKFQGRVTITADEFTSTAYMELSSLRSEDTAMYYCARSIYRYSEYDHWGQGTLVTVSSTSGQAGQHHHHHHGAYPYDVPDYAS | 151 |  | 1760 | 144 | 2590 | 92.9 | 124 | 97.8 | 98.1 | 3590 | 741 | 103 | 99.8 | 7880 | 23600 | 94.7 | Median:FITC-A [6]: 146; binding result [7]: no binding; Median:FITC-A [12]: 745; Median:FITC-A [23]: 143
7 | Clone #5 (scFv, also called EXT017-5; EXT017-5 scFv phage clone) scFv (VL-linker-VH-His/HA tag): QSALTQPPSASGSPGQSVTISCTGTSSDVGGYNYVSWYQQHPGKAPKLMIYEVSKRPSGVPDRFSGSKSGNTASLTVSGLQAEDEADYYCSSYAGSNTHVVFGGGTKLTVLGSRGGGGSGGGGSGGGGSLEMAEVQLVQSGAEVKKPGASVKISCKASRYTFTNYYIHWVRQAPGQGLEWMGIINPSGGSTTYPQNFQGRLTMTRDTSTSTVYMELSSLRSEDTAMYYCARGWSGYDPGDFWGQGTLVTVSSTSGQAGQHHHHHHGAYPYDVPDYAS | 142 | no binding | 2050 | 149 | 2460 |  | 129 |  |  |  |  |  |  |  |  |  | 
8 | Clone #10 (scFv, also called EXT017-10; EXT017-10 scFv phage clone) scFv (VL-linker-VH-His/HA tag): QAVLTQPPSASGTPGQRVTISCSGGSSNIGVNPVNWYQQLPGTAPKLLIFANYQRPSGVPDRFSGSKSGTSASLAISGLQSDDEAHYYCSTWDDSLNAWLFGGGTKLTVLGSRGGGGSGGGGSGGGGSLEMAEVQLVQSGAEVKKPGDSLRISCQGSGYSFTSYYISWVRQMPGKGLEWMGNIDPSDSYTNYSPSFQGHVTMSVDKSISTAYLQWSSLKASDIAIYYCVRHGFSNSPRLWFDTWGQGTLVTVSSTSGQAGQHHHHHHGAYPYDVPDYAS | 149 | no binding | 1130 | 151 |  |  |  |  |  |  |  |  |  |  |  |  | 
